Reference: patent US20170209564A1

Experiments:
[1] = target: 11B4; experiment: ELISA, coated CR6261, P. pastoris medium; details: remark: other sources report otherwise
[2] = target: 11F4; experiment: ELISA, coated CR6261, P. pastoris medium; details: remark: other sources report otherwise
[3] = target: 11H6; experiment: ELISA, coated CR6261, P. pastoris medium; details: remark: other sources report otherwise
[4] = target: 12C6; experiment: ELISA, coated CR6261, P. pastoris medium; details: remark: other sources report otherwise
[5] = target: 27B10; experiment: ELISA, coated CR6261, P. pastoris medium; details: remark: other sources report otherwise
[6] = target: 2C4; experiment: ELISA, coated CR6261, P. pastoris medium; details: remark: other sources report otherwise
[7] = target: 35H3; experiment: ELISA, coated CR6261, P. pastoris medium; details: remark: other sources report otherwise
[8] = target: 36H2; experiment: ELISA, coated CR6261, P. pastoris medium; details: remark: other sources report otherwise
[9] = target: 4C1; experiment: ELISA, coated CR6261, P. pastoris medium; details: remark: other sources report otherwise
[10] = target: 50G10; experiment: ELISA, coated CR6261, P. pastoris medium; details: remark: other sources report otherwise
[11] = target: 55G7; experiment: ELISA, coated CR6261, P. pastoris medium; details: remark: other sources report otherwise
[12] = target: 56F8; experiment: ELISA, coated CR6261, P. pastoris medium; details: remark: other sources report otherwise
[13] = target: 58A11; experiment: ELISA, coated CR6261, P. pastoris medium; details: remark: other sources report otherwise
[14] = target: 60A2; experiment: ELISA, coated CR6261, P. pastoris medium; details: remark: other sources report otherwise
[15] = target: 61A9; experiment: ELISA, coated CR6261, P. pastoris medium; details: remark: other sources report otherwise
[16] = target: 71H2; experiment: ELISA, coated CR6261, P. pastoris medium; details: remark: other sources report otherwise
[17] = target: 74H9; experiment: ELISA, coated CR6261, P. pastoris medium; details: remark: other sources report otherwise
[18] = target: 85A7; experiment: ELISA, coated CR6261, P. pastoris medium
[19] = target: 86B4; experiment: ELISA, coated CR6261, P. pastoris medium; details: remark: other sources report otherwise
[20] = target: 87H5; experiment: ELISA, coated CR6261, P. pastoris medium; details: remark: other sources report otherwise
[21] = target: 89F11; experiment: ELISA, coated CR6261, P. pastoris medium; details: remark: other sources report otherwise
[22] = target: 8D7; experiment: ELISA, coated CR6261, P. pastoris medium; details: remark: other sources report otherwise
[23] = target: 91F10; experiment: ELISA, coated CR6261, P. pastoris medium; details: remark: other sources report otherwise
[24] = target: 96A7; experiment: ELISA, coated CR6261, P. pastoris medium; details: remark: other sources report otherwise
[25] = target: 96G5; experiment: ELISA, coated CR6261, P. pastoris medium; details: remark: other sources report otherwise
[26] = target: 57B8; experiment: ELISA signal over HTRF expression signal, P. pastoris; details: remark: other sources report otherwise
[27] = target: 63C3; experiment: as above; details: remark: other sources report otherwise
[28] = target: 67C10; experiment: as above; details: remark: other sources report otherwise
[29] = target: 69D2; experiment: as above; details: remark: other sources report otherwise
[30] = target: 69G8; experiment: as above; details: remark: other sources report otherwise
[31] = target: 71A4; experiment: as above; details: remark: other sources report otherwise
[32] = target: 71D3; experiment: as above; details: remark: other sources report otherwise
[33] = target: 71E7; experiment: as above; details: remark: other sources report otherwise
[34] = target: 71H2; experiment: as above; details: remark: other sources report otherwise
[35] = target: 74D7; experiment: as above; details: remark: other sources report otherwise
[36] = target: 76D10; experiment: as above; details: remark: other sources report otherwise
[37] = target: 7A7; experiment: as above; details: remark: other sources report otherwise
[38] = target: 80F10; experiment: as above; details: remark: other sources report otherwise
[39] = target: 84D3; experiment: as above; details: remark: other sources report otherwise
[40] = target: 86G2; experiment: as above; details: remark: other sources report otherwise
[41] = target: 87H5; experiment: as above; details: remark: other sources report otherwise
[42] = target: 88C5; experiment: as above; details: remark: other sources report otherwise
[43] = target: 96G5; experiment: as above; details: remark: other sources report otherwise

B1: CR6261 (antibody, V domains shown)
VH: EVQLVESGAEVKKPGSSVKVSCKASGGPFRSYAISWVRQAPGQGPEWMGGIIPIFGTTKYAPKFQGRVTITADDFAGTVYMELSSLRSEDTAMYYCAKHMGYQVRETMDVWGKGTTVTVSS
VL: QSVLTQPPSVSAAPGQKVTISCSGSSSNIGNDYVSWYQQLPGTAPKLLIYDNNKRPSGIPDRFSGSKSGTSATLGITGLQTGDEANYYCATWDRRPTAYVVFGGGTKLTVLG
[1]
  CR6261 binding signal: 166000
[2]
  CR6261 binding signal: 151000
[3]
  CR6261 binding signal: 427000
[4]
  CR6261 binding signal: 289000
[5]
  CR6261 binding signal: 187000
[6]
  CR6261 binding signal: 258000
[7]
  CR6261 binding signal: 106000
[8]
  CR6261 binding signal: 171000
[9]
  CR6261 binding signal: 386000
[10]
  CR6261 binding signal: 264000
[11]
  CR6261 binding signal: 616000
[12]
  CR6261 binding signal: 235000
[13]
  CR6261 binding signal: 53300
[14]
  CR6261 binding signal: 92700
[15]
  CR6261 binding signal: 383000
[16]
  CR6261 binding signal: 1.11e+06
[17]
  CR6261 binding signal: 1.28e+06
[18]
  CR6261 binding signal: 236000
[19]
  CR6261 binding signal: 1.08e+06
[20]
  CR6261 binding signal: 78100
[21]
  CR6261 binding signal: 84800
[22]
  CR6261 binding signal: 73400
[23]
  CR6261 binding signal: 14800
[24]
  CR6261 binding signal: 83300
[25]
  CR6261 binding signal: 108000
[26]
  fold increase of ratio over parental SEQ ID NO: 6: 1.7
  ratio (binding signal/HTRF signal): 10.1
[27]
  fold increase of ratio over parental SEQ ID NO: 6: 4.15
  ratio (binding signal/HTRF signal): 24.7
[28]
  fold increase of ratio over parental SEQ ID NO: 6: 3.99
  ratio (binding signal/HTRF signal): 23.7
[29]
  fold increase of ratio over parental SEQ ID NO: 6: 2.19
  ratio (binding signal/HTRF signal): 13
[30]
  fold increase of ratio over parental SEQ ID NO: 6: 8.55
  ratio (binding signal/HTRF signal): 50.8
[31]
  fold increase of ratio over parental SEQ ID NO: 6: 10.2
  ratio (binding signal/HTRF signal): 60.5
[32]
  fold increase of ratio over parental SEQ ID NO: 6: 5.67
  ratio (binding signal/HTRF signal): 33.7
[33]
  fold increase of ratio over parental SEQ ID NO: 6: 3.19
  ratio (binding signal/HTRF signal): 19
[34]
  fold increase of ratio over parental SEQ ID NO: 6: 11.2
  ratio (binding signal/HTRF signal): 66.3
[35]
  fold increase of ratio over parental SEQ ID NO: 6: 3.27
  ratio (binding signal/HTRF signal): 19.4
[36]
  fold increase of ratio over parental SEQ ID NO: 6: 1.97
  ratio (binding signal/HTRF signal): 11.7
[37]
  fold increase of ratio over parental SEQ ID NO: 6: 12.4
  ratio (binding signal/HTRF signal): 73.4
[38]
  fold increase of ratio over parental SEQ ID NO: 6: 1.78
  ratio (binding signal/HTRF signal): 10.6
[39]
  fold increase of ratio over parental SEQ ID NO: 6: 4.87
  ratio (binding signal/HTRF signal): 28.9
[40]
  fold increase of ratio over parental SEQ ID NO: 6: 1.93
  ratio (binding signal/HTRF signal): 11.5
[41]
  fold increase of ratio over parental SEQ ID NO: 6: 1.64
  ratio (binding signal/HTRF signal): 9.77
[42]
  fold increase of ratio over parental SEQ ID NO: 6: 5.94
  ratio (binding signal/HTRF signal): 35.3
[43]
  fold increase of ratio over parental SEQ ID NO: 6: 2.4
  ratio (binding signal/HTRF signal): 14.3
